Assay results as given in article PMC2928392 (Pharmacogenetics and Genomics, 2009).

B1: UDP-glucuronosyltransferase 2A1 (UGT2A1) (Homo sapiens) (protein)
chain: GNVLIWPMEGSHWLNVKIIIDELIKKEHNVTVLVASGALFITPTSNPSLTFEIYKVPFGKERIEGVIKDFVLTWLENRPSPSTIWRFYQEMAKVIKDFHMVSQEICDGVLKNQQLMAKLKKSKFEVLVSDPVFPCGDIVALKLGIPFMYSLRFSPASTVEKHCGKVPYPPSYVPAVLSELTDQMSFTDRIRNFISYHLQDYMFETLWKSWDSYYSKALGGLLLCCPGWSAVADLGSLQPLLPGFKRFSRLSLHCSWDYRLPAGRPTTLCETMGKAEIWLIRTYWDFEFPRPYLPNFEFVGGLHCKPAKPLPKVLWRYKGKKPATLGNNTQLFDWIPQNDLLGHPKTKAFITHGGTNGIYEAIYHGVPMVGVPMFADQPDNIAHMKAKGAAVEVNLNTMTSVDLLSALRTVINEPSYKENAMRLSRIHHDQPVKPLDRAVFWIEFVMRHKGAKHLRVAAHDLTWFQYHSLDVIGFLLVCVTTAIFLVIQCCLFSCQKFGKIGKKKKRE
B2: UDP-glucuronosyltransferase 2A2 (UGT2A2) (Homo sapiens) (protein)
chain: MVSIRDFTMPKKFVQMLVFNLTLTEVVLSGNVLIWPTDGSHWLNIKIILEELIQRNHNVTVLASSATLFINSNPDSPVNFEVIPVSYKKSNIDSLIEHMIMLWIDHRPTPLTIWAFYKELGKLLDTFFQINIQLCDGVLKNPKLMARLQKGGFDVLVADPVTICGDLVALKLGIPFMYTLRFSPASTVERHCGKIPAPVSYVPAALSELTDQMTFGERIKNTISYSLQDYIFQSYWGEWNSYYSKILGRPTTLCETMGKAEIWLIRTYWDFEFPRPYLPNFEFVGGLHCKPAKPLPKEMEEFIQSSGKNGVVVFSLGSMVKNLTEEKANLIASALAQIPQKVLWRYKGKKPATLGNNTQLFDWIPQNDLLGHPKTKAFITHGGTNGIYEAIYHGVPMVGVPMFADQPDNIAHMKAKGAAVEVNLNTMTSVDLLSALRTVINEPSYKENAMRLSRIHHDQPVKPLDRAVFWIEFVMRHKGAKHLRVAAHDLTWFQYHSLDVIGFLLVCVTTAIFLVIQCCLFSCQKFGKIGKKKKRE

Legend:
[1] = target: T1, UDP-glucuronosyltransferase 2A3 (UGT2A3) (Homo sapiens, UniProt Q6UWM9); assay: glucuronidation rate at […], radiochemical HPLC; type: cell-based
T1 sequence (Q6UWM9 24-527): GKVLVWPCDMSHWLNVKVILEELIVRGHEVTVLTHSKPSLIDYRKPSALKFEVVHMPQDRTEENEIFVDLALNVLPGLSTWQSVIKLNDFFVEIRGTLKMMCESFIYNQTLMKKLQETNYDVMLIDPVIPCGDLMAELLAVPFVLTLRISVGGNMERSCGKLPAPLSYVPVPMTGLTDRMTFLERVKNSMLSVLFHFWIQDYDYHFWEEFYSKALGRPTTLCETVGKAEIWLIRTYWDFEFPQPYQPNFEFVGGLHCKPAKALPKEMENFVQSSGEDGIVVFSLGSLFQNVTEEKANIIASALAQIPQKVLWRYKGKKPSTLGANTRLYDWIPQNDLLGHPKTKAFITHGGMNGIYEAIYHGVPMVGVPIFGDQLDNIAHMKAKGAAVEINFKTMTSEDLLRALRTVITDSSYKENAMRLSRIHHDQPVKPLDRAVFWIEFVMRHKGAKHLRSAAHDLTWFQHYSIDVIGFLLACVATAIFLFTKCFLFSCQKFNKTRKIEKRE

glucuronidation kinetics [2] = substrate: O=[N+]([O-])c1ccc(O)cc1; assay: glucuronidation kinetics; type: cell-based, Homo sapiens; details: UDP-glucuronic acid; MgCl2 ([…])
[3] = substrate: O=C(O)[C@H]1O[C@H](OP(=O)(O)OP(=O)(O)OC[C@H]2O[C@@H](n3ccc(=O)[nH]c3=O)[C@H](O)[C@@H]2O)[C@H](O)[C@@H](O)[C@@H]1O; assay: cells, lysate or membranes; details: MgCl2 ([…]) co-substrate
glucuronidation kinetics [4] = substrate: Oc1ccc(-c2ccccc2)cc1; assay: glucuronidation kinetics; type: cell-based, Homo sapiens; details: UDP-glucuronic acid; MgCl2 ([…])
glucuronidation kinetics [5] = substrate: Cc1cc(=O)oc2cc(O)ccc12; assay: glucuronidation kinetics; type: cell-based, Homo sapiens; details: UDP-glucuronic acid; MgCl2 ([…])

Molecule | glucuronidation rate at 200 μM, radiochemical HPLC (4.9 pmol/min/mg) [1] | Km (glucuronidation kinetics [2]) [µM] | Vmax (glucuronidation kinetics [2]) [pmol/min/mg] | Km [3] [µM] | Vmax [3] [pmol/min/mg] | Km (glucuronidation kinetics [4]) [µM] | Vmax (glucuronidation kinetics [4]) [pmol/min/mg] | Km (glucuronidation kinetics [5]) [µM] | Vmax (glucuronidation kinetics [5]) [pmol/min/mg]
C[C@H](CCC(=O)O)[C@H]1CC[C@H]2[C@@H]3C[C@H](O)[C@@H]4C[C@H](O)CC[C@]4(C)[C@H]3CC[C@]12C [HDCA, hyodeoxycholic acid] | UGT2A3 exhibited glucuronidating activity only towards HDCA |  |  |  |  |  |  |  | 
B1 |  | 303 | 141 ± 5 | 39.5 | 292 ± 12 |  |  |  | 
B2 |  | 4469 | 69 ± 3 | 55.1 | 91.4 ± 3 | 245 | 124 ± 2 | 2998 | 39 ± 0.9
